# In the DeepSol protein solubility set:
# Test: soluble on expression in E. coli; label from the status in PepcDB or PDB records
row,Sequence,soluble on expression in E. coli
1,MSNTVTLRADGRLFTGWTSVSVTRSIESVAGYFELGVNVPPGTDLSGLAPGKKFTLEIGGQIVCTGYIDSRRRQMTADSMKITVAGRDKTADLIDCAAVYSGGQWKNRTLEQIARDLCAPYGVTVRWELSDKESSAAFPGFTLDHSETVYEALVRASRARGVLMTSNAAGELVFSRAASTATDELVLGENLLTLDFEEDFRDRFSEYTVKGYARANGAEGDDIDAKSIVSRKGTATDSDVTRYRPMIIIADSKITAKDAQARALREQRRRLAKSITFEAEIDGWTRKDGQLWMPNLLVTIDASKYAIKTTELLVSKVTLILNDQDGLKTRVSLAPREGFLVPVESDRKNRKGGDSNGGIDALVEDYYRRHPEKTPPWKE,soluble
2,MSNVTPKLVWPEDDYVDESLLEDHQGPARLEYDALVMLANLPPLTEEIMSRCPALPVKTRSTPEYTLVLDLDETLVHCSLTPLDNATMVFPVVFQNITYQVYVRLRPHLRTFLSRMAKTFEIIIFTASKKVYANKLCDILDPRKNHIRHRLFREHCVCVFGNYVKDLTILGRDPSKTMILDNAVQSFAYQLDNGIPIESWFHDRNDTELLKLCSFLEAIPTLGRDVREILRHKYRLRDHIPFYSIIHQQEGPGRLPLLEVAPPPVTEPNDEQLITQVVQKHPQLVQG,soluble
3,MSPESSNQTTSLSSFLLKCAFPDGTVPINIAPQSLSLSSSPGSYDGDQFSPLMKQHKSRKYDSCTISDDLHDEMKRLKKKEEAFKTALCGFQRRGQKCIYGEQCKFAHSVHELRFTQAKKTHRNYKTVLCDKFSTTGYCKYGARCQFIHRALGSTSTTESAEMADFKLNVESDLSRAFALDYTSFLPNWHCSALLH,not soluble
4,MSQAFAQPLSGYQIGDEIKNFSMLNVTNQTVLSLTDYNDQKVVVIIFTNNNCAYAKLYEQRIANLAKQYNTSGVAFLLVNPSVSNSDKFETIEAMRKKIQNDKSLYPYLADTTQSLAISFGVQRLPDAFVLKKMETSFRLVYKGSIDDNPQSAEDVSNRFLSDAISAMVLNRSIKVADTRAVGCLLKPY,not soluble
5,MSQARPATVLGAMEMGRRMDVTSSSASVRAFLQRGHTEIDTAFVYANGQSETILGDLGLGLGRSGCKVKIATKAAPMFGKTLKPADVRFQLETSLKRLQCPRVDLFYLHFPDHGTPIEETLQACHQLHQEGKFVELGLSNYVSWEVAEICTLCKKNGWIMPTVYQGMYNAITRQVETELFPCLRHFGLRFYAFNPLAGGLLTGRYKYQDKDGKNPESRFFGNPFSQLYMDRDWKEEHFNGIALVEKALKTTYGPTAPSMISAAVRWMYHHSQLKGTQGDAVILGMSSLEQLEQNLALVEEGPLEPAVVDAFDQAWNLVAHECPNYFR,soluble
6,MSQNVYQFIDLQRVDPPKKPLKIRKIEFVEIYEPFSETQAKAQADRCLSCGNPYCEWKCPVHNYIPNWLKLANEGRIMEAADLAHQTNSLPEVCGRVCPQDRLCEGSCTLNDEFGAVTIGNIERYISDKAIAMGWKPDMSHVHPTGKRVAVIGAGPAGLACADVLARNGVQAVVFDRHPEIGGLLTFGIPAFKLEKEVMIKRRKIFSEMGIEFQLNTEVGKDITMEALLKDYDAVFLGVGTYQSMRGGLENEEANGVYDALPFLIANTKQLMGYEATAHEPYINMQGKRVVVLGGGDTAMDCVRSSIRQGATDVVCAYRRDEVNMPGSKREVKNAREEGVEFKFNLQPLSIEVNSNGKVCGVRMVRTQLGAPDAQGRRMAEQIPGSEHVLPADAVVMAFGFRPHSMEWLAAHDVKLDKQGRVIAPESTDNAFQTSNPKIFAGGDIVRGSDLVVTAIAEGRKAADGIMNYLEV,not soluble
7,MSQQKIGVLLVNLGTPEHPTAPAIRKFLKPFLADSRVIDYPKFLWKPILYSFILPFRPRKVKPLYQHVWTNEGSPLYANAIGQEKALQAHFDQSEHGVLVRATMAYSKPSISDVVDEFLKEKVAKMIVLPLFPQYSSTTTAAIFDAFAQSLKKKKDIPPFDFIHHYYERPSYIQALAQTIHLQENEHLLFSFHGIPQRYVIEGDYYTEHCQQTAQLIAVAAGLSEEQWQVSYQSRFGPEEWTRPYTDETLIQLPKQGKKKLAVICPGFAADCLETLEEIDITNRKHFMAAGGQAYRYIPALNASPAHIQLLAELISERL,not soluble
8,MSQTIGRIEEISFYSASLQDDVTLLVYLPVNYTPLHKHTVVIAQDGRDYFQLGKAHRVIERLRETEEIDRTIIVGIPYKNVHDRKEKYFPNEVKNAAYIRFLAHELAPYIDENYPTYQMGKGRVLIGDSLGGTVSFMTALMYPHTFGKVVMQSPFVDETVMNLAKEFKDPQALELYHVIGTEETAVKRTDGQVSDFVGPNRELNTLLTDRNFITHYEEFEGNHTWKYWQTDLPKAFSHILSMK,not soluble
9,MSQTKIEWADKVWNPVSGCTKISEGCQNCYAERMSKRLAGRCGYPAEEPFKVTPHPEKLGEPLKWRKPLRIFVNSMSDLFHADVPDKFIINVLSMIAEASHHTFLILTKRPERMRELLNHDTIANDVWLQTSRGVNAERSPWPLPNLWLGVSAENQAAADERIPILLQTPAAVRFVSVEPMLSEVNLSRYLKRPICKHWGRNGDPNIYGRYFWGKQALVGAGWVGIDWVICGGETGPGARPMHPVWVRDLRDQCRVAGTPFFFKSFGEYVRVGECMNEEDDEEFYSKSSAAGTNVQRLNLQGGMGYHGPKSIYMQRIGKKRAGRELDGRTWEEFPLEHHHHHH,not soluble
10,MSQWTTVCKLDDILPGTGVCALVEQQQIAVFRPRNDEQVYAISNIDPFAQASVLSRGIVAEHQDDLWVASPLKKQHFRLYDGFCLEDGAYSVAAYDTQVTNGNVQISIADSDVAVDNSQPLPLEHHHHHH,soluble
11,MSRAASLRAELTSLANAFEEERISSAERLDADLVRQAVEQAKPENLEQWKQVVHDATAKLQQFWEDSEQALIRETYALATSYLRESDDEVHRLQMTKKALEEQLETERRRSTRIEEQLAALQSRLLDSAAPAATTPADDARTQQEVLRSELQGFMQELVRNQRESLRVLQEELQRVREEASVREENLLRQIAHLKTELAVARTDNEVSSRQLRQLETSAGREEVQDELGPGTIWPPHLTPRRGHRRFQRHNRLEDAPAPPEF,not soluble
12,MSRTIWLVRHGQRVDNVDKKWKANNDAKWDDPELTLRGKQQAHEVGKHFANMNIEAIVVSPFTRCIETAAQIVAMMENKAKICVEPGLMEPLYLCKNPPTIPSMDKIKEYSTQVDESYKPVFEKLPISEISLLFSEISLLFPMVLHWQTSTLS,not soluble
13,MSRTTPYRLDDQIGFILRQANQRYAALFANGIGNGLTPTQWAALVRLGETGPCPQNQLGRLTAMDAATIKGVVERLDKRGLIQRSADPDDGRRLLVSLSPAGRAELEAGLAAAREINRQALAPLSLQEQETLRGLLARLI,soluble
14,MSRTYDLASDVIRRVYERRIDAPAILDSASEFPNAAKFTNAWRDIRDEALGVHLGKVPRFHDIMPEQADISANDGLDWRMFVLKAYDMAVPENLARMPVLSRLLAECPEVKSAAISFLAPRKHIPSHRGPFRGIMRFHLGLVIPRQADGRPATIMMIDHQEKRITDGEGMLWDDTYPHEVMNNADETRIALLLDVWRPGMPWDMEMLSRLIVRGVQAGMRRRGVSFSGLEHHHHHH,soluble
15,MSSDAISLRAAGPGDLPGLLELYQVLNPSDPELTTQEAGAVFAAMLAQPGLTIFVATENGKPVATATLLIVPNLTRAARPYAFIENVVTLEARRGRGYGRTVVRHAIETAFGANCYKVMLLTGRHDPAVHAFYESCGFVQNKTGFQIRQD,soluble
16,MSSDHVFKYVIIGDRGVGKSNLLLRFIGKPFDSIHPSTLGIEFGFRNLEIDRKKVKLHVWDTCGQERFRSLVGSYYRHAIGALLVYDITSRESFYHLEHWLTDLQRLGDPDIVIVLIGNKSDLEADREVRKEEGEAFAREFGLIFMEISAKTNEYVEEAFVNSAHEIYRKLNFGIIKEICVKKKKKKMNIIIRSISGKEKACC,not soluble
17,MSSGDQKVKEMFIEQGLHVDWLVRAHTVNSIEGLVYLSEQRHKWAEADQKVIFRILQDYKNSDGELLPEHNPAAPINRKRGTLKTELETFYDVPQVRTLTCELLDMVKEEPSIWDKIRCVDFGCHQRMRQAWCSISLKLGGWGAIQHVHMLKQLYRKKRDLYNVQYLRSGREFEYCEKLSFLKDVLEMAKNDPLDKNIQLDEHLKTATPIIDFDAELLAAPAEIQQILREISEKIDKVTTSQSPGFLAEYLATCCNEVVKHRETLATAGLGDDFN,not soluble
18,MSSGLYSMEKKEFDKVLDLERVKPYGDTMNDGKVQLSFTLPLKNNERSAEAAKQIALKMGLEEPSVVMQQSLDEEFTFFVVYGNFVQSVNYNEIHVEAVNSEILSMEETDEYIKENIGRKIVVVGASTGTDAHTVGIDAIMNMKGYAGHYGLERYEMIDAYNLGSQVANEDFIKKAVELEADVLLVSQTVTQKNVHIQNMTHLIELLEAEGLRDRFVLLCGGPRINNEIAKELGYDAGFGPGRFADDVATFAVKTLNDRMNS,soluble
19,MSSHPPIRSYVLRQGYFSNAQRHAYESLLPRYGIPLTEEPVDLDSIFGRTAPGILEIGSGMGETTAEIARQHPEKDFIAIEVHAPGIGSLLGQIEKHRLTNLRIIPHDAKLVLQQMFTSESLDGIHIFFPDPWPKARHHKRRLIQPDFVSLLCDRLKPGGYLHIATDWEDYATHILHVLRSEERFVNTAVDYAARPAYRPLTKFEQRGMKLGHTIRDIIFTRTALEHHHHHH,not soluble
20,MSSKLKISLSCGDYDRTRALFDGRAPIEGCEVTAVPLEPEEAFHRAFRYHEYDVTEISMSSHMMTTARGDNEYIAIPAFLSRVFRHSGIYVRTDRDIDKPQDLRGKTIGVPEYQITANVWIRGILEDAYGVKPQDIKWRRGGIEEPGRGERAPIELPDGIDLQQIPDDKTLSDMLEAGEIDGYIGARAPSCFLRGAPNVGRLFNDYLKTEQDYFRETRIFPIMHMVGIRRSLVEQNPWLPVSVYKAFLKAKMLAVKELNEICHLAVTLPWMVHHYNAARELMGDDYWPYGLDANRHVIETFARYHYGQGLSRRLVKPEELFAASSLDLSKIMAGDPNSLEHHHHHH,not soluble
21,MSSPRSNKPKIVNGPGGYILQDVPHLIDYLPDLPTYPNPLQDNPAYSVVKQYFVHADDSVPEKVVVHKDGPRGVHFRRAGPRQKVYFESDEVHACIVTCGGLCPGLNTVIREVVSSLSYMYGVKRILGIDGGYRGFYAKNTIPLNSKVVNDIHKRGGTIIGTSRGGHDTNKIVDSIQDRGINQVYIIGGDGTQRGASVIFEEIRRRRLKVAVVGIPKTIDNDIPVIDKSFGFDTAVEEAQRAINAAHVEAESNENGIGFVKLMGRYSGYIAMYATLASRDVDCCLIPESPFYLEGEGGLFEFIERRLKDHGHMVIVLAEGAGQDLMCKSMESTPMDASGNKLLKDVGLWLSQSIKDHFKKNKMVMNLKYIDPTYMIRAVPSNASDNVYCTLLAQSAVHGAMAGYTGYTSGLVNGRQTYIPFYRITETQNNVVITDRMWARLLSSTNQPSFLGPKDTSEEKKELPETPLLDDGAVDIPPVTKEVTK,soluble
22,MSSQKVFGITGPVSTVGATAAENKLNDSLIQELKKEGSFETEQETANRVQVLKILQELAQRFVYEVSKKKNMSDGMARDAGGKIFTYGSYRLGVHGPGSDIDTLVVVPKHVTREDFFTVFDSLLRERKELDEIAPVPDAFVPIIKIKFSGISIDLICARLDQPQVPLSLTLSDKNLLRNLDEKDLRALNGTRVTDEILELVPKPNVFRIALRAIKLWAQRRAVYANIFGFPGGVAWAMLVARICQLYPNACSAVILNRFFIILSEWNWPQPVILKPIEDGPLQVRVWNPKIYAQDRSHRMPVITPAYPSMCATHNITESTKKVILQEFVRGVQITNDIFSNKKSWANLFEKNDFFFRYKFYLEITAYTRGSDEQHLKWSGLVESKVRLLVMKLEVLAGIKIAHPFTKPFESSYCCPTEDDYEMIQDKYGSHKTETALNALKLVTDENKEEESIKDAPKAYLSTMYIGLDFNIENKKEKVDIHIPCTEFVNLCRSFNEDYGDHKVFNLALRFVKGYDLPDEVFDENEKRPSKKSKRKNLLEHHHHHH,soluble
